The values that follow come from paper PMC6337079, “Exploring Novel Functions of the Small GTPase Ypt1p under Heat-Shock by Characterizing a Temperature-Sensitive Mutant Yeast Strain, ypt1-G80D” (International Journal of Molecular Sciences, 2019).

The series concerns the molecule itself. Kind of series: native gel or EMSA; purified protein (3 μg/μL) incubated at 25 °C or 45 °C for 30 min, native-PAGE, silver-stained; self-association. On the technique in general: In EMSA bound probe runs differently from free probe, usually more slowly.

B1: Ypt1p (purified bacterially expressed recombinant) (natural protein)
chain: not shown
notes: Ypt1p, Rab family small GTPase of Saccharomyces cerevisiae, from the plasmid pGEX-YPT1; monomer printed as 23.5 kDa; also called native Ypt1p; wild-type Ypt1p; source: E. coli BL21(DE3)pLysS, purified (GSH-agarose, thrombin cleavage, TSK heparin-5PW HPLC, ATP-agarose)
Take B1: the binding result is listed as “binds”.

B2: Ypt1p^G80D (purified bacterially expressed recombinant) (natural protein)
chain: not shown
notes: Ypt1p of Saccharomyces cerevisiae with G80D, from the plasmid pGEX-ypt1^G80D (pGEX-2T, BamHI/HindIII insert); source: E. coli BL21(DE3)pLysS, purified (GSH-agarose, thrombin cleavage, TSK heparin-5PW HPLC, ATP-agarose)
On to B2, for which the binding result is given as “binds”.
